The record followed here is the supplement of paper PMC12042874.

± gives the uncertainty stated by the source.

A short description of the data set: amyloid nucleation score (Sup35N fusion, yeast selection) (log enrichment); library NNK1; higher = more nucleation; inactive = no reads after selection. The procedure, abridged: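 Libraries of peptides of 20 random codons fused to Sup35N were expressed in psi-negative yeast and induced 24 hours with 100 μM copper sulfate. Selection was 7 days at 30°C on medium lacking adenine and uracil, and plasmid inserts were Illumina-sequenced before and after selection. Nucleation score is the DiMSum log enrichment of output over input reads, centred on the mode score of non-aggregating sequences, and sequences with under 100 input reads were left out.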
For the substance TYDALRGYNYHLWSNQFTFY, the amyloid nucleation score stood at 4.84 ± 0.066.

RLSLETIVASFIYCCCAKFA: the amyloid nucleation score came to 1.66 ± 0.5. FGAFYVGDHG: the amyloid nucleation score was -1.7 ± 1.3. As for VCQLVILGFFLRIVTMCWLW, the entry is “inactive”; as for LQKIMQKISPIFRNRIYVRR, -0.327 ± 0.48; as for MYVYVQISYFGLHCVWTMYK, -0.032 ± 0.45. As for NALASLKVMILDPTMELCCA, the figure is 0.996 ± 0.9; as for LIKRVQLFV, -0.284 ± 0.4.

In turn, CLMIKMHSILIDVIYLHTRV returned an amyloid nucleation score of -0.363 ± 0.77. Then SITMGQS, with -0.546 ± 0.46. Then RYDTNMFFSCCT, with 5.591 ± 0.054; and MASPLSLGKAVALAKHKWGD, with 0.001 ± 1.1. RINSGHIK returned an amyloid nucleation score of 0.247 ± 0.33.

SRNNCSNRRDYHGIYSMRIS: the amyloid nucleation score was 0.513 ± 0.79. In turn, FLQNMSVILTIMNDIKIMED had an amyloid nucleation score of 6.161 ± 0.047. As for PFLAKVLCNVWNI, the figure is 6.8 ± 0.047; as for QFLALVCFCIPRLVRLAGYE, -1.35 ± 1.1. As for CSCYRFLGDSKWIRHHINRT, the figure is -0.679 ± 0.85. Consider VLGGCYNFLLCF, for which the amyloid nucleation score came to 7.713 ± 0.059. On to VDLISWLVYEKVMSRMNIYN, for which the amyloid nucleation score is -0.001 ± 0.4.

As for KTTLCM, the amyloid nucleation score is -0.088 ± 0.39.

Substance SYWCSHIIIERMLVLVHRIV returned an amyloid nucleation score of 1.19 ± 0.59. As for GALVYAFYAAS, the figure is 0.525 ± 0.89; as for LLNLYWFLSVPDTINLSHER, 8.087 ± 0.05. MLGDAIMGM registered an amyloid nucleation score of 1.09 ± 0.57. As to GFWAKSPLAGHSYKGYQLWA, the amyloid nucleation score worked out at 1.62 ± 0.57. In turn, GAVIVCVYMQALVVIDRASA had an amyloid nucleation score of -0.62 ± 0.94. Then LKFNAP, with -0.14 ± 1.4; and FRSFLVPACYHGFGDGYMFF, with -0.439 ± 0.77; and VTNPNYP, with -0.696 ± 0.65. CYSQDRSRLVSEDYY: the amyloid nucleation score was -0.525 ± 0.34. Then GFLSATWCSQWSIILVKERG, with 1.48 ± 0.45; and LLRVTEYLIIRPCSVFVINR, with -0.459 ± 0.36. As for NACFSIKQTYWNVT, the figure is 0.537 ± 0.34; as for FIRGLCNVLGCSR, 1.04 ± 0.24; as for RRCSEM, 0.853 ± 0.4. As for VLSYL, the figure is -0.248 ± 0.38. Substance DWMFCTYCVTVFESQNVAVH displayed an amyloid nucleation score of 0.272 ± 0.27. Then QANAMNYKEKLFNFRYRGAM, with -0.722 ± 0.53; and YVIFCTPSFFIL, with 5.52 ± 0.068. Then MDFYVLPNCRQNGMLCERSC, with 0.508 ± 0.67; and KEGRPQSTLCNVVRGFREQY, with -0.565 ± 0.7. Then QVSTNLVWDL, with 0.614 ± 1.2. Consider LVRGVHT, for which the amyloid nucleation score was -0.446 ± 0.28. The substance DCQVAVPLRIVKANSVILCG registered an amyloid nucleation score of 0.26 ± 0.37. Then GKSWFGYCVSLVCMSWVLSD, with 0.67 ± 1.2; and MSYSMVNGDSTF, with 2.33 ± 0.35. In the case of IGQFMVDWYNIGGREPVPGS, the amyloid nucleation score worked out at 0.301 ± 0.78. As for TFYVRDRAGCPW, the figure is 1.33 ± 0.73; as for RASHGAYDNFRGKKFMMRVM, -1.01 ± 0.54; as for FSYRSIWLRVLRV, -0.111 ± 0.4. Then YWILQV, with 0.299 ± 0.73.

Regarding DIITFHYLRTARLKGRYLFI, the amyloid nucleation score entry is “inactive”. As for LANIYSSNVDISFFDPYCST, the figure is 4.35 ± 0.085; as for RRHAHLWLYLGNLGCWLEEV, -0.139 ± 0.38. As for GALSNSSMWFGMYVNPLGTY, the entry is “inactive”; as for DWLMMDLL, 0.103 ± 1.1; as for TDGTLIGSY, 0.128 ± 0.44. As to DQVQGFISFLMLFKDFVSYG, the amyloid nucleation score is -0.028 ± 0.33. Then NGGMGSPLDYQRWSDGDQVG, with -0.365 ± 1.1; and PVVCYTVAFVTGSTDVV, with -0.139 ± 1.3; and LNSGASMLWQTLSYPMSRVR, with -0.506 ± 1.2. As for RGDLF, the figure is 3.04 ± 0.07.

Turning to SYAYKLETNSRFMIQWKVQY, the amyloid nucleation score was determined as 3.48 ± 0.092. As for GFKRRYCDNISAIHPDSGCK, the entry is “inactive”. As for IFAVHMLYSECTGSFRYHWS, the figure is 0.055 ± 0.79; as for LQGSVIYLNIKSLGEGVWLF, 3.44 ± 0.17; as for RKRPTGTHAVDVSRGFT, 1.27 ± 0.71.

FYARMLYYA: the amyloid nucleation score entry was “inactive”. Take YLTSANTSFTFESWWCL: the amyloid nucleation score stood at 2.93 ± 0.22. Then VDHVGGWVYWYGTRCTFVDG, with -0.048 ± 0.27. Then SLLSAMDLPPFLSYRLSPRW, with 0.059 ± 1.2; and TYIPDIYG, with 1.1 ± 0.74.

In turn, LKNTVHWTADHFRVTSP showed an amyloid nucleation score of -0.623 ± 0.67.

Take SADQIYHKGQWHSWTNSTNQ: the amyloid nucleation score was determined as 0.35 ± 0.29. As for ILFDLQPKFVRR, the figure is 0.693 ± 0.48; as for CVFSVRYALDRWDPTKCEVG, 0.325 ± 0.43.

NQNAGELNKFPWDRWKYLYV: the amyloid nucleation score is -1.1 ± 0.74.

IIRGVTAGALFYYFSVILLR: the amyloid nucleation score is -0.214 ± 0.77. Then VTFFHFSQGR, with 4.79 ± 0.057; and IMMSYRFHFNNSERIRGCVR, with -0.321 ± 0.26. In turn, NVSVENLGYTLSIPSSMICS returned an amyloid nucleation score of 0.319 ± 0.23.

As to ADTLFPLDHPVINFSPFIVL, the amyloid nucleation score came out at 5.789 ± 0.05. Substance ELASSLIVFVDFSRACELNL had an amyloid nucleation score of 4.95 ± 0.12. Then GVLRSSTSTVRGSCAGFHRL, with 0.29 ± 0.43.

In turn, QHLRFSFVPE displayed an amyloid nucleation score of 0.312 ± 0.46.

Regarding HFNFNFAQSRNEMLVASG, the amyloid nucleation score is -1.16 ± 1.6. As for HFSGYMFCNPLTSGIVNATW, the figure is 6.404 ± 0.045; as for VEGLEDGVWR, 0.876 ± 0.38; as for ISINHVTCRLVFETGKWRWG, 3.45 ± 0.086. In turn, NPTNVSVWGTRGPGCVDYWY displayed an amyloid nucleation score of -0.304 ± 0.41. Substance FLTIYGLNPSDYVGKVRQRD showed an amyloid nucleation score of 0.236 ± 0.34. As for YMGELFTE, the figure is 2.45 ± 0.15; as for FSQLYMGMYPGHNLLKYHSG, -0.275 ± 0.22; as for RDRDVEFTNDL, 0.614 ± 0.75. Then FTLSKTILDRSFLWIQGLWS, with -0.354 ± 0.81; and FLTAAWTSGHDGREFSPRPF, with 2.61 ± 0.16; and RHRVQTTPSSMSFV, with -0.388 ± 0.96. Consider SLKMEDFKKNSKMRMDFINH, for which the amyloid nucleation score amounted to 1.85 ± 0.19. KVLSIRWECPLECFALQSYV displayed an amyloid nucleation score of 0.042 ± 0.32. Then ETLSFGKHLPRVHAFHHVRC, with -0.671 ± 1.2.

DDCRMYAFL: the amyloid nucleation score came out at 0.776 ± 0.36. As for LSHWHGCCKSHRYIQF, the figure is 0.244 ± 0.3. As for PHDSFLMHTDSGEHWGPVYR, the figure is 0.037 ± 0.36; as for FDGFNFISWIVR, 2.06 ± 0.11. Substance WLISFGDFDGSMFKMMSNTK showed an amyloid nucleation score of 2.67 ± 0.13. As for YSGPGAGFGGLLCIGNAQNL, the figure is -0.108 ± 0.62; as for AFLRVIDQQLRLEIHIIMKL, “inactive”.

Regarding DSSLEVRRNRTSRLYAHFT, the amyloid nucleation score was -0.218 ± 0.39. As for KREKEYFNERLPTDLSLQRC, the figure is -1.21 ± 0.66; as for YLVTYVLSIRNCGIYIWIRR, 0.413 ± 0.49; as for FVFSGFYT, 0.353 ± 0.21. Then MLPRPVRPVGGTRWESGVKL, with 0.548 ± 0.3.

As to RAWQHNFGKIMRSPRVFVRW, the amyloid nucleation score is -1.4 ± 0.94. Then RVGSFMVNPSSCMSYAFWLR, with 0.443 ± 0.49. As for TSLNNGKSDFLYEARVLLEF, the figure is 0.541 ± 0.35; as for WYLWHMLICLVTFRMNSFFR, 0.707 ± 1; as for MLIFHTCA, 0.483 ± 1.1. On to SLYLYMGWPSHWVESVLPYG, for which the amyloid nucleation score worked out at 0.043 ± 0.89. Then TYSLYMCADKFRNTLVNKAV, with “inactive”.

FSNRWFC: the amyloid nucleation score was -0.578 ± 0.31.

Regarding FGYRMAYGSHVFVHSYRTEP, the amyloid nucleation score was 2.42 ± 0.24. The substance VKYGTLYEGRNDLIDVR had an amyloid nucleation score of 0.635 ± 0.62.

Regarding GVGEIVSNRFAIS, the amyloid nucleation score was -0.409 ± 1. As for STKKLYTILRHWSYDFAESG, the figure is -0.509 ± 1.7. As for GSTCIRTGSVIVGRL, the figure is 0.301 ± 0.28; as for DRWLSM, -0.025 ± 0.51. Then FVKFVTSEAFDHVLRTNWN, with “inactive”; and YGTGMCHELCIDVTSWVMWM, with -1.57 ± 0.79; and CKRTSDPCHIVECFLPFHVL, with 0.315 ± 0.85. MCLLKGGSLVIVCGSGH had an amyloid nucleation score of 5.76 ± 0.061. As for PGYYLEYFLYVNLSWAKTWG, the figure is 0.018 ± 0.27; as for RSVYFIYTWIWQVSAVIFLC, 0.107 ± 0.2; as for IYYRTMYYMVVSSIN, 0.394 ± 0.65. Then YYWSYLALYSG, with -0.57 ± 1.2. Then VGSIVELSVHTTSDEKVSCR, with 0.316 ± 0.25; and FPFAYGVSESQSSVIHVLDV, with -0.063 ± 0.26; and WSINMCCMRSRLWNFDGRKE, with 4.04 ± 0.074.

Regarding YRALLYFNGIMW, the amyloid nucleation score entry was “inactive”. Then RDCPTNIVAGTLLCLMAEWT, with -0.549 ± 1.
